Concentration needed for fluorescence from 90% or more of HEK 293E cells (low TfR expression) by FACS, percent of fluorescent SKBR 3 cells (high TfR expression) by FACS and ratio of fluorescent cells, SKBR 3 (high TfR) against HEK 293E (low TfR), data for one substance are collected here from patent US20220401560A1, “PEPTIDE ENCAPSULATING FERRITIN” (Ajinomoto Co., Inc., priority 2019, published 2022).

This test addresses transferrin receptor TfR (human) (UniProt P02786). Description: cell-based or functional assay.

Some results are limits rather than exact numbers.

Sequence of FAM-SV40 encapsulating FTH (P02794 whole entry): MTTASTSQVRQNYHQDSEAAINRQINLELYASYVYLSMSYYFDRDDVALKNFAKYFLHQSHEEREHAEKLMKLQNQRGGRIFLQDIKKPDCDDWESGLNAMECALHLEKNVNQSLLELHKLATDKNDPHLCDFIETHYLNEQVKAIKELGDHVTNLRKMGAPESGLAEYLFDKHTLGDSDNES

For the substance “FAM-SV40 encapsulating FTH (from UniProt P02794 1-183)”, the concentration needed for fluorescence from 90% or more of HEK 293E cells (low TfR expression) by FACS was more than 800 nM; the percent of fluorescent SKBR 3 cells (high TfR expression) by FACS at 100 nM FAM-SV40 encapsulating FTH was more than 90%; the ratio of fluorescent cells, SKBR 3 (high TfR) against HEK 293E (low TfR), at 100 nM came to 60 times.
